Results as given in article PMC12313985.

Assays:
[1] = molecular target: PKA-phosphorylated full-length human Tau (PKA-Tau) (human) (UniProt P10636)
[2] = molecular target: Fluorescein (FITC)-labelled bi-phospho Tau peptide pS2 (Tau^210–222-…-Tau^318–331) (human); assay: fluorescence polarisation; 14-3-3ζ titrated (twofold series from 400 μM) into 10 nM fluorescein-labelled peptide; 10 mM HEPES pH 7.4, 150 mM NaCl, 50 µM TCEP, 0.1% Tween20, 0.1% BSA; room temperature; 4PL fit
Chain of Fluorescein (FITC)-labelled bi-phospho Tau peptide pS2 (Tau^210–222-…-Tau^318–331) (human) (peptide, as listed by the source): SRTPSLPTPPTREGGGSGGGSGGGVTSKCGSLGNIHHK

Chain of PKA-phosphorylated full-length human Tau (PKA-Tau) (human) (P10636 other isoform, or with tags, fused parts or gaps): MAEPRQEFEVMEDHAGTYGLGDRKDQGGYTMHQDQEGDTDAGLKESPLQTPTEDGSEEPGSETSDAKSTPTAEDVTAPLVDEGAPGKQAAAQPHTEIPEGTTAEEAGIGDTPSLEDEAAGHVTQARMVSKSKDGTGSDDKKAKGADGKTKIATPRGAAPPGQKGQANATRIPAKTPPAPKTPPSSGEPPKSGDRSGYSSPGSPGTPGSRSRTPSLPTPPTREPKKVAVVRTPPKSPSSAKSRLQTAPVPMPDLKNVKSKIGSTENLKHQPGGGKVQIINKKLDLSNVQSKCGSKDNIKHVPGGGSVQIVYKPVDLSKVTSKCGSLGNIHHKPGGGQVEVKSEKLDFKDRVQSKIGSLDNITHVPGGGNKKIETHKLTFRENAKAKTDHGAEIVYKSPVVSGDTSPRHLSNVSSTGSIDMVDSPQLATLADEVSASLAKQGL

14-3-3 protein zeta (14-3-3ζ) (from UniProt P63104 1-245) (natural protein)
FRAP mobile fractions in PKA-Tau:14-3-3ζ condensates [1]: 50%
Kd [2]: 1 µM
